For test [1], the target named is CR3 (CD11b/CD18) expressed by normal human neutrophils (Homo sapiens, UniProt P11215). The test can be described thus: EAiC3b binding to adherent neutrophils (CR3). Format: cell-based. The method, then:
Purification and adherence of human neutrophils: Neutrophils were purified as described by Boyum et al. (Scand. J. Clin. Lab. Med. 97(suppl.):77, 1968), resuspended in divalent-cation-free Tris-HCl-saline buffer, pH 7.4 at 5×10^7/ml and kept on ice until used. Neutrophils (2×10^5 cells/well) were allowed to adhere to 96-well plates in Iscov's Modified Medium for one hour at 37° C., in a humidified incubator with 5% CO2. The wells were then washed, and […] of fluoresceinated EAiC3b or EA (at 1.5×10^8/ml) were added in the presence of 3% BSA, in a total volume of […], followed by 15 min incubation at 37° C. with 5% CO2. Wells were then washed and fluorescence quantified as described above.
The ability of A7 to inhibit EAiC3b binding to CR3 (CD11b/CD18) expressed by normal human neutrophils was measured under conditions similar to those used in assessing EAiC3b binding to rA-domain. EAiC3b binding to neutrophils is primarily mediated by CR3, but can also occur in vitro through complement receptor type 1 (CR1). The effect of A7 on EAiC3b binding was tested in nearly isotonic conditions and in the presence of blocking concentrations of a polyclonal anti-CR1 antibody (Ross et al., J. Exp. Med. 158:334, 1983). […] These findings indicate that A7 is the major site in CR3 responsible for its interaction with iC3b.

Test [2] relates to biotinylated NIF binding to human neutrophils. The test can be described thus: Inhibition of biotinylated NIF binding to neutrophils. How it is done: 100 μg of rNIF were labeled with sulfo-NHS-Biotin as described above. rNIF binding to resting or stimulated human neutrophils (pretreated with 10^−6 M f-met-leu-phe, for 15 minutes at 37° C., then washed) was measured. Increasing amounts of biotinylated rNIF in the absence or presence of 100-fold molar excess of unlabeled rNIF were incubated on ice for one hour with 1×10^6 neutrophils in VBSG^++ in a total volume of […]. Cells were then washed and incubated with phycoerythrin-coupled avidin (Sigma Chemical Co.) under similar conditions, washed again, fixed in 1% paraformaldehyde in PBS, and analyzed using FACScan (Becton Dickinson Co., Mountain View, Calif.). Mean channel fluorescence for each sample was then expressed as a function of the amount of biotinylated rNIF used. Background binding of phycoerythrin-streptavidin alone to neutrophils was subtracted (2.8 fluorescent units). Specific binding was obtained by […], and the values plotted according to Scatchard (Ann. N.Y. Acad. Sci. 51:660, 1949). To determine the effect of unlabeled fluid-phase-r11bA or GST on rNIF binding to neutrophils, each was preincubated at varying concentrations with biotinylated rNIF (20 ng/ml, final concentration) for 15 minutes on ice before addition of the mixture to neutrophils. The effect of mAbs on biotinylated NIF binding to neutrophils was assessed by preincubating the neutrophils with 100 μg/ml of each mAb at 4° C. for 15 minutes before addition of biotinylated NIF (20 ng/ml). The incubation then continued for one hour, followed by processing of cells for FACS analysis as described below.

Test [3] concerns the target T1, biotinylated NIF binding to immobilized r11bA (Homo sapiens, UniProt P11215).
T1 construct: recombinant CD11b A domain (rCD11bA) and recombinant CD11a A domain (r11aA) were expressed as GST fusion proteins; GST (N); made in house; host or cells: Escherichia coli
Briefly: Inhibition of biotinylated NIF binding to immobilized r11bA. The method, then:
Immobilization of Recombinant Proteins and Polypeptide: Purified rA-domain preparations (1 μg/well), soluble CD54, human fibrinogen (Sigma Chemical Co., St. Loius, Mo.), gelatin (BioRad-Laboratories) or BSA (Calbiochem-Behring Corp.) (each at 10 μg/well) or selected A-domain-derived peptides (10 μg) were added to Immulon-2 96-well microtiter plates (Dynatech Labs, Chantilly, Va.) overnight. Quantitation of adsorbed wild-type and mutant A-domain and synthetic peptides was done using the mAb 44 in an ELISA, and the BCA kit (from Pierce Chemical Co., Rockford, Ill.), respectively. […]
Biotinylation of recombinant NIP and Measurement of Binding to Immobilized Peptides: Recombinant NIP was labeled with sulfo-NHS-biotin as described by the manufacturer (Pierce Chemical Co.). […] Wells were then washed, incubated with alkaline phosphatase-coupled avidin, washed again, developed with substrate and quantified colormetrically using a microplate reader. […] In experiments where the effects of divalent cations on biotinylated rNIF binding to immobilized rCD11b A-domain were measured, VBSG^−− buffer (veronal-buffered saline, pH=7.4, containing 0.1% gelatin) containing 1 mM of Ca^2+, Mg^2+, Mn^2+, EDTA, EGTA, EGTA plus 1 mM MgCl2, or 1 mM MnCl2. […]

Consider “r11bA: recombinant human CD11b A domain (Cys128 to Glu321), expressed as GST fusion protein, used as such or after thrombin cleavage”, for which the “concentrations required for inhibition of iC3b binding to leukocytes” value in test [1] is “micromolar concentrations”. Moreover, the “concentration range inhibiting NIF binding to leukocytes” value in test [2] is “low nM range”. Moreover, in test [2] (dose dependent), the “effect of fluid-phase protein on biotinylated rNIF binding to human neutrophils” value is recorded as “abolished”. For the same substance, the IC50 was around 1 nM in test [2] (fluid-phase protein, read-out: half-maximal inhibition of biotinylated rNIF binding to human neutrophils) and around 1 nM in test [3] (fluid-phase protein, read-out: half-maximal inhibition of biotinylated rNIF binding to immobilized r11bA). In addition, the “effect of fluid-phase protein on biotinylated rNIF binding to immobilized r11bA” value in test [3] (dose dependent) was “abolished”.

For the origin of these results see US20050227296A1, “Method for indentifying integrin antagonists” (The General Hospital Corporation, a Massachusetts …, priority 1988, published 2005).
